The source of these data is patent US20030026781A1 (MITOKOR, published 2003).

Common to all, as to assay: cell-based or functional assay
Assay [1] concerns the target mitochondrial ATP synthase (ETC Complex V) ATPase in rat liver submitochondrial particles (SMP) (rat, UniProt P15999 44-553; P10719 47-529; P35435 1-273; P35434 23-168; P29418 2-51).
For assay [2], the target named is F0-F1-ATPase in rat ASMPs (alkaline submitochondrial particles) prepared from rat cardiac samples (rat, UniProt P15999 44-553; P10719 47-529; P35435 1-272; P35434 23-168; P29418 2-51).
The target in assay [3] is purified F1-ATPase subcomplex isolated from bovine cardiac samples (bovine, UniProt P19483 44-553; P00829 47-528; P05631 26-297; P05630 23-168; P05632 2-51).
In assay [4] the target is purified F0-F1 ATPase complex isolated from bovine cardiac samples (bovine, UniProt P19483 44-553; P00829 47-528; P05631 26-297; P05630 23-168; P05632 2-51).

B1: IF1 peptide 14-42 (synthetic peptide fragment of rat IF1) (peptide)
peptide: SIREAGGAFGKREKAEEDRYFREKTREQL
On to B1, for which, in assay [1], the “IC50, inhibition of oligomycin-sensitive ATPase in rat liver SMP” value is over 2600 nM.

B2: IF1(42-58) synthetic polypeptide, amino acids 42-58 of the mature form of rat IF1 (peptide)
peptide: LAALKKHHEDEIDHHSK
On to B2, for which, in assay [2], the “IC50, inhibition of F0-F1-ATPase in rat ASMPs” value is about 2500 nM. Besides, the “IC50, inhibition of ATP hydrolysis by purified F1-ATPase” value in assay [3] is about 870 nM. The “IC50, inhibition of ATP hydrolysis by purified F0-F1-ATPase” value in assay [4] is about 180 nM.

B3: IF1(22-46) synthetic polypeptide, amino acids 22-46 of the mature form of rat IF1 (peptide)
peptide: FGKREKAEEDRYFREKTREQLAALK
Regarding B3, the “IC50, inhibition of ATP hydrolysis by purified F1-ATPase” value in assay [3] was about 1390 nM.

B4: IF1 peptide 14-43 (synthetic peptide fragment of rat IF1) (peptide)
peptide: SIREAGGAFGKREKAEEDRYFREKTREQLA
Take B4: in assay [1], the “IC50, inhibition of oligomycin-sensitive ATPase in rat liver SMP” value is over 1500 nM.
